Key:
[1] = target: T1, WT-CHIPS (CHIPS 1-121), CHemotaxis Inhibitory Protein from Staphylococcus aureus (Staphylococcus aureus (strain Newman), UniProt A6QIG7 29-149); assay: flow cytometry, 3 ug/ml CHIPS-FITC on HEK-293 cells displaying the C5aR N-terminus (pDISPLAY)
T1 construct: mature

[2] = target: T1, WT-CHIPS (CHIPS 1-121), CHemotaxis …; assay: flow cytometry, 3 ug/ml CHIPS-FITC on HEK-293 cells expressing FLAG-tagged C5aR (pcDNA3.1)

Binder	binding result [1]	binding result [2]
MNSFNYTTPDYGHYDDKDTLDLNTPVDKTSNTLRVPDI (receptor, domain: transmembrane domain; also called C5aR N-terminal protein; pDISPLAY C5aR N-terminal protein)	binds	–
FLAG-tagged complete human C5aR expressed on HEK293 cells (pcDNA3.1) (receptor, also called whole C5aR; complete C5aR) MDYKDDDDKNSFNYTTPDYGHYDDKDTLDLNTPVDKTSNTLRVPDILALVIFAVVFLVGVLGNALVVWVTAFEAKRTINAIWFLNLAVADFLSCLALPILFTSIVQHHHWPFGGAACSILPSLILLNMYASILLLATISADRFLLVFKPIWCQNFRGAGLAWIACAVAWGLALLLTIPSFLYRVVREEYFPPKVLCGVDYSHDKRRERAVAIVRLVLGFLWPLLTLTICYTFILLRTWSRRATRSTKTLKVVVAVVASFFIFWLPYQVTGIMMSFLEPSSPTFLLLNKLDSLCVSFAYINCCINPIIYVVAGQGFQGRLRKSLPSLLRNVLTEESVVRESKSFTRSTVDTMAQKTQAV	–	binds

— patent US20080233137A1 (published 2008)
